Data reported in the supplement of paper PMC10567573.

B1: PCDHGA10 (parent)
chain: FHELQMQVTASDSGDPPLSSNVSL

Variants of: B1
Assay: protein stability index of a GFP-peptide fusion (GPS, HEK-293T) (PSI 1-6); higher = more stable
Conditions: c terminus: a fixed tail appended
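Further: lentivirally expressed fusions sorted by FACS into six bins by GFP to DsRed ratio, PSI derived from sequencing read proportions per bin multiplied by bin number.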

In order of falling protein stability index:
1. SHELQMQVTASDSGDPPLSSNVSL  5.08
2. FNELQMQVTASDSGDPPLSSNVSL  4.47
3. FEELQMQVTASDSGDPPLSSNVSL  4.28
4. FHEEQMQVTASDSGDPPLSSNVSL  4.19
5. FHEDQMQVTASDSGDPPLSSNVSL  3.84
6. FKELQMQVTASDSGDPPLSSNVSL  3.84
7. FHELQMQNTASDSGDPPLSSNVSL  3.72
8. FHELQMQVTASDSGDPPLSVNVSL  3.46
9. FHELQSQVTASDSGDPPLSSNVSL  3.29
10. FHELQMQVTASDSGDPPLSSNVSQ  3.26
11. FHELQMQVTASDSGDPPLSSNHSL  3.13
12. FHELQMQVTASDSGWPPLSSNVSL  3.09
13. FHELQMDVTASDSGDPPLSSNVSL  3.06
14. FHELQMQVTASDSGDPPGSSNVSL  3.05
15. FHELQMQVTASDSGDPPPSSNVSL  3.02
16. FHELQMQVTASMSGDPPLSSNVSL  3
17. FHELQMQVTASNSGDPPLSSNVSL  2.92
18. FHELQMQVRASDSGDPPLSSNVSL  2.88
19. FHEHQMQVTASDSGDPPLSSNVSL  2.87
20. FHELQMQVGASDSGDPPLSSNVSL  2.86
21. FHELQMQVNASDSGDPPLSSNVSL  2.83
22. FHELQMQVTASDSGDPPTSSNVSL  2.74
23. FHGLQMQVTASDSGDPPLSSNVSL  2.69
24. FHELQMQVTASDSGDPILSSNVSL  2.65
25. FHELQMQVDASDSGDPPLSSNVSL  2.65
26. FHELQMIVTASDSGDPPLSSNVSL  2.62
27. FHELQMQVTASDSGDPPFSSNVSL  2.56
28. FHELQVQVTASDSGDPPLSSNVSL  2.56
29. FHCLQMQVTASDSGDPPLSSNVSL  2.53
30. FHELQMQVTASFSGDPPLSSNVSL  2.47
31. FHELQCQVTASDSGDPPLSSNVSL  2.47
32. FHELQMQVHASDSGDPPLSSNVSL  2.43
33. FHELQMQVTASDNGDPPLSSNVSL  2.43
34. FHELQMQVTASDCGDPPLSSNVSL  2.43
35. FHELQMQVTASDSGDPPVSSNVSL  2.43
36. FHELQMQVTASDSGDPPLSSNQSL  2.43
37. FHFLQMQVTASDSGDPPLSSNVSL  2.39
38. FHILQMQVTASDSGDPPLSSNVSL  2.38
39. FHELQMQVTASDSGDPPLSSNCSL  2.38
40. FHELQMQVTASDSADPPLSSNVSL  2.33
41. FHELQMQVTASDSGDPPWSSNVSL  2.3
42. FHELQMQITASDSGDPPLSSNVSL  2.29
43. FHELQMQVTASDSGDPELSSNVSL  2.28
44. FHELQMQVTASDSGDPPLPSNVSL  2.2
45. FHELQMQVSASDSGDPPLSSNVSL  2.16
46. FHELQMQVTAHDSGDPPLSSNVSL  2.16
47. FHELQMQVTASDSGDPPLSSNVML  2.15
48. FHELKMQVTASDSGDPPLSSNVSL  2.13
49. FHELQMQVTASDSGDPNLSSNVSL  2.12
50. FHELQMQVVASDSGDPPLSSNVSL  2.12
51. FHELQMQVTACDSGDPPLSSNVSL  2.12
52. FHELQMQVTASDSGDPPLKSNVSL  2.11
53. FHELQMQVTASDSGDPPLSSSVSL  2.1
54. FHELQMQVTASDMGDPPLSSNVSL  2.08
55. FHELQMQVTASDSGDPPLSSKVSL  2.08
56. FHELQMQVTASDSGDPPLSHNVSL  2.05
57. FHEYQMQVTASDSGDPPLSSNVSL  2.04
58. FHELQMQVTASDSGDSPLSSNVSL  2.04
59. FHELVMQVTASDSGDPPLSSNVSL  2.04
60. FHELQMQVTYSDSGDPPLSSNVSL  2.02
61. FHELQMQVTASDSGDPPLTSNVSL  2.02
62. FHELQMQVTASDSGDPPLSSNVGL  2.01
63. FHELQMQVTNSDSGDPPLSSNVSL  1.99
64. FHELQMQVTASDSGDPPLSQNVSL  1.98
65. FHELQMQVTASDSYDPPLSSNVSL  1.94
66. FHELQMQVTASDSGDPQLSSNVSL  1.93
67. FHELQMQVTASDSGIPPLSSNVSL  1.93
68. FHELQMQVTAVDSGDPPLSSNVSL  1.93
69. FHLLQMQVTASDSGDPPLSSNVSL  1.92
70. FHELQMQVTASDSGVPPLSSNVSL  1.92
71. FHELQMQVTASDSGDPPLSGNVSL  1.91
72. FHELQMQVTASDSGDPPLSSNVIL  1.89
73. FHELQMQVTASDSGHPPLSSNVSL  1.88
74. FHELQMQVTASHSGDPPLSSNVSL  1.88
75. FHELCMQVTASDSGDPPLSSNVSL  1.88
76. FHELQMQVYASDSGDPPLSSNVSL  1.86
77. FHELQMQVTASDSGDPPLSSNVSI  1.83
78. FHELQMQVTASDSGDPPLSANVSL  1.82
79. FHELQMQVTASDSGTPPLSSNVSL  1.8
80. FHELQMQVTASDTGDPPLSSNVSL  1.75
81. FHELQMQVTASDSGDPPLSSMVSL  1.75
82. FHELQMSVTASDSGDPPLSSNVSL  1.74
83. FHELQMQVTASDIGDPPLSSNVSL  1.66
84. FHVLQMQVTASDSGDPPLSSNVSL  1.6
85. FHELQMQVTASDSGDPCLSSNVSL  1.56
86. FHELQMQVTASDSGDPPLSSWVSL  1.55
87. FHELQMQVTRSDSGDPPLSSNVSL  1.48
88. FHELQMQVTASDSGYPPLSSNVSL  1.42
89. FHELQMQVTASDSGFPPLSSNVSL  1.4
90. FHELQFQVTASDSGDPPLSSNVSL  1.4
91. FHEFQMQVTASDSGDPPLSSNVSL  1.39
92. FHELQMQVTVSDSGDPPLSSNVSL  1.26
93. FHELQMQWTASDSGDPPLSSNVSL  1.25
94. FHELQMQVTASDSGDPLLSSNVSL  1.16
